The values that follow come from patent publication US20200016237A1.

Experiment [1] deals with Alkaline Phosphatase-tagged extracellular domains of Neogenin (Ec-Neogenin-AP). In words: plate competition binding assay, His-tagged protein coated, AP-tagged protein detected with pNPP at 405 nm; sRGMa pre-incubated with Ec-Neogenin-AP.
In experiment [2] the target is Neogenin on murine brain-derived endothelial cells (b.end3) (mouse) (UniProt P97798). The experiment can be described thus: cell-based or functional assay.
Sequence of Neogenin on murine brain-derived endothelial cells (b.end3) (mouse) (P97798 37-1492): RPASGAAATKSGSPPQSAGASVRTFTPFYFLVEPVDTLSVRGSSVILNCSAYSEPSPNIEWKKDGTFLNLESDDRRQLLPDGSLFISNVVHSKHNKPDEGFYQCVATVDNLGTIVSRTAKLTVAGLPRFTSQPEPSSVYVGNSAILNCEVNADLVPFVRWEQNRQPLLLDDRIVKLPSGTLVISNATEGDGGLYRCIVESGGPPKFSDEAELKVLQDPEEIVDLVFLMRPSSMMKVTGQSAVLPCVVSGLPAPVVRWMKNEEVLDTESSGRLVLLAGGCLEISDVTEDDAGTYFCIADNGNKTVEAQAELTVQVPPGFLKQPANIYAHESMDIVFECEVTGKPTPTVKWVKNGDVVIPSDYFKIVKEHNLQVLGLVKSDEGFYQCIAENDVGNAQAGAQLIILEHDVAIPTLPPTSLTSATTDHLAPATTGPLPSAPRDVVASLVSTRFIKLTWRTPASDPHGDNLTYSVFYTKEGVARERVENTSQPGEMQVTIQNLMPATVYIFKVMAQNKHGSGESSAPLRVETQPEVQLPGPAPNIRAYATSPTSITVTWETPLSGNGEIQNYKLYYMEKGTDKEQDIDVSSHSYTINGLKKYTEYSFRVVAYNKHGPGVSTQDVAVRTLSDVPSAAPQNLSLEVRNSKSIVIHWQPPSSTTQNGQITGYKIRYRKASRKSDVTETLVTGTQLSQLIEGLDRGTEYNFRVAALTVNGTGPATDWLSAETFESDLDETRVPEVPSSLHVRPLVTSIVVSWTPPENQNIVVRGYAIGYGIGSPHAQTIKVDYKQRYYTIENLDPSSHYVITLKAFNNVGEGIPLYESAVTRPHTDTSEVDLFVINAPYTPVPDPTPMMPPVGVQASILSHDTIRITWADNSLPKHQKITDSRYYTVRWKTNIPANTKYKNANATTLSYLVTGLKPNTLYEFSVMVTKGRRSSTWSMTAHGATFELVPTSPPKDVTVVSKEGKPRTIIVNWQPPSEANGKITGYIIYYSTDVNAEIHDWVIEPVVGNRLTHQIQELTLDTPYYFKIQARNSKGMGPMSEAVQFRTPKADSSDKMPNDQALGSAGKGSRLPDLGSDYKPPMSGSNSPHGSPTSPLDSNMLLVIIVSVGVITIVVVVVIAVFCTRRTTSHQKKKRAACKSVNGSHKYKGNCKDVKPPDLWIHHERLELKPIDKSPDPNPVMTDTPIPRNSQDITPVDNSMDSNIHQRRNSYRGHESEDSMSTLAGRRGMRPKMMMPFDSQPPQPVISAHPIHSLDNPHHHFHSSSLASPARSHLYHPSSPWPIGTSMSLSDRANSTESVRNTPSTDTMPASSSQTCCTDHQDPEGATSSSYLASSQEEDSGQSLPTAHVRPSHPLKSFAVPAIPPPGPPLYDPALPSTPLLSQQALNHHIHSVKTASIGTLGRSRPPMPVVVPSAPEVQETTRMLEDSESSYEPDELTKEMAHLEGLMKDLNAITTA

Turning to “soluble RGMa (sRGMa), mouse, His tag replacing the GPI anchor (from UniProt Q6PCX7 170-427) (ligand)”, the fold reduction of binding intensity of RGMc to Neogenin against BSA control in experiment [1] turned out to be 3 fold. Further, the fold decrease in Claudin 5 levels in b.End3 cells (Western blot) in experiment [2] was 2 fold.
